Target: nab-paclitaxel nanoparticles (human, UniProt P02768 25-609)
Assay: BLI

Kd: 4.51 µM
B1: biotinylated bevacizumab (antibody, V domains shown)
VH: EVQLVESGGGLVQPGGSLRLSCAASGYTFTNYGMNWVRQAPGKGLEWVGWINTYTGEPTYAADFKRRFTFSLDTSKSTAYLQMNSLRAEDTAVYYCAKYPHYYGSSHWYFDVWGQGTLVTVSS
VL: DIQMTQSPSSLSASVGDRVTITCSASQDISNYLNWYQQKPGKAPKVLIYFTSSLHSGVPSRFSGSGSGTDFTLTISSLQPEDFATYYCQQYSTVPWTFGQGTKVEIK
modifications: biotin (sites not given) | biotin (sites not given)

Reference: paper PMC5670201 (2017)
